Test results from publication doi:10.64898/2025.12.23.696137 (bioRxiv, 2025).

Target: the molecule itself
Assay: co-IP

B1: METTL9-FLAG wild type (mouse) (enzyme)
chain: RRMWTLRSPLSRSLYVNMTSGPGGPAAAAGGGKDTHQWYVCNREKLCESLQSVFVQSYLDQGTQIFLNNSIEKSGWLFIQLYHSFVSSVFSLFMSRTSINGLLGRGSMFVFSPDQFQRLLRINPDWKTHRLLDLGAGDGEVTKIMSPHFEEIYATELSETMIWQLQKKKYRVLGINEWQNTGFQYDVISCLNLLDRCDQPLTLLKDIRSVLEPTQGRVILALVLPFHPYVENVGGKWEKPSEILEIKGQNWEEQVNSLPEVFRKAGFVVEAFTRLPYLCEGDMYNDYYVLDDAVFVLRPV
modifications: N-linked glycans at Asn-35 and Asn-86
stoichiometry N: 2
